Reference: patent US20160263235A1 (ANGIOCHEM, published 2016)
Square brackets hold non-standard residues; d marks the D form.

Assays:
[1] = target: T1, NT receptor NTSR1 (high affinity NTSR1 receptor) on HT29 cells (human (HT29 is stated to be a human …, UniProt P30989 1-418)); experiment: competitive displacement of [3H]-NT from HT29 cells expressing NTSR1
T1 construct: whole, on cells; Endogenous receptor on HT29 cells

[2] = target: T1, NT receptor NTSR1 (high affinity NTSR1 …); experiment: as above; remark: listed apart in the source

T1 sequence (P30989 whole entry): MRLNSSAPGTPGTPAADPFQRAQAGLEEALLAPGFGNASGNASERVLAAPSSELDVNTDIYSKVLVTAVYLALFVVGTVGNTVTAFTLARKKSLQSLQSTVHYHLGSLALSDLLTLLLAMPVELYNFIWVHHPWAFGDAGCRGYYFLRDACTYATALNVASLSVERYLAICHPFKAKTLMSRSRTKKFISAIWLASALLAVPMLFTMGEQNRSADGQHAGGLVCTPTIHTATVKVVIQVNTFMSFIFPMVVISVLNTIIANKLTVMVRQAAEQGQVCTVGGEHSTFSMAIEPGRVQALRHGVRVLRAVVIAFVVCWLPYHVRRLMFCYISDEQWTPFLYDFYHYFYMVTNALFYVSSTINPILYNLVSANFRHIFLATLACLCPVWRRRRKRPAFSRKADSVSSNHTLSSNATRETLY

B1: Ac-Lys-[D-Tyr^11]NT(8-13) (peptide)
peptide: Ac-KRRP[dY]IL-OH
SMILES: CC[C@H](C)[C@H](NC(=O)[C@@H](Cc1ccc(O)cc1)NC(=O)[C@@H]1CCCN1C(=O)[C@H](CCCNC(=N)N)NC(=O)[C@H](CCCNC(=N)N)NC(=O)[C@H](CCCCN)NC(C)=O)C(=O)N[C@@H](CC(C)C)C(=O)O
notes: also called AcLysNT(8-13)D-tyr11; AcLysNT(8-13)(D-Tyr11)
Q: How did the “fold weaker binding than native NT” value [1] turn out when B1 was run?
A: The value was greater than 1000 fold.

Q: What about the IC50 [2] of the same binder?
A: Its IC50 is 5.39 µM.
